Data reported in PMC5469797, “Discovery of a novel conformational equilibrium in urokinase-type plasminogen activator” (Scientific Reports, 2017).

Target: T1, full-length muPA inhibited at the active site with Glu-Gly-Arg-chloromethylketone (Mus musculus, UniProt P06869, irreversible active site binding ligand Glu-Gly-Arg-chloromethylketone (EGR-cmk) in the active site)
T1 construct: as m2; source: HEK293 6E suspension cells, purified by nickel-Sepharose chromatography; reacted with EGR-cmk
Experiment: SPR; BiaCore T100, 22 °C, curves fitted to a 1:1 binding model; who was immobilised is not told (SI Methods)
Settings: both partners purified

T1 sequence (P06869 21-433): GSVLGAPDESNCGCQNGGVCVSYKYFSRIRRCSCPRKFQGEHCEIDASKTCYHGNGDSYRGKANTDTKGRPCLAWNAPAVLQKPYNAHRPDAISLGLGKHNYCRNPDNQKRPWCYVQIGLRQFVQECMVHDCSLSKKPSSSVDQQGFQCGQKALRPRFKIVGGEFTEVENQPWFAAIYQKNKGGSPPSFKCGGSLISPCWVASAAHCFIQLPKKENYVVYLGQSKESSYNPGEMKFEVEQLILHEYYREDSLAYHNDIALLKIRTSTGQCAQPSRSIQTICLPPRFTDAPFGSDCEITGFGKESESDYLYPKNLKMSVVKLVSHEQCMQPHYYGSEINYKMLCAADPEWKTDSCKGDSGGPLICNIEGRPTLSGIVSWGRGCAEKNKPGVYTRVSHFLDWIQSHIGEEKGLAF

B1: anti-muPA allosteric nanobody Nb7 (VHH)
VHH: QVQLQESGGGLVQPGGSLRLSCAASGFTLGYYAIGWFRRAPGKEREGVSCISSSGGSTNYADSVKGRFTISRDNAKNTVDLQMNSLKPEDTAIYYCAAEWVPPGYGATVQALCNNAGYGMEYWGKGTQVTVSS
notes: from an immunised alpaca phage library; All residues of Nb7 were visible in the electron density of 5LHN; source: E. coli WK6 (su-), produced as described previously
In the case of B1, the “fold change of KD against muPA without EGR-cmk” value is reported as 1.5 fold.
